Our source for the Kd values is PMC10480042 (ACS applied materials & interfaces, 2023).

This assay addresses Aβ42. The assay is described as follows: SPR. (In general: In SPR one partner is held on a chip, and binding of the other changes the refractive index at the surface.)

In general, Kd refers to the equilibrium constant for the complex coming apart. The low end stands for higher affinity, the high end for lower affinity. For the molecule HGVVFLHVTYV [Spike1058 (1058HGVVFLHVTYV1068), fragment of the SARS-CoV-2 spike protein], the affinity, expressed as Kd, was 82.6 nM.
